{
  "source": "patent US20240035010",
  "about": "“COMPOSITIONS COMPRISING A VARIANT POLYPEPTIDE AND USES THEREOF” (Arbor Biotechnologies, Inc., published 2024)",
  "binders": {"B1": {"name": "AAVS1 crRNA ; AAVS1 target (ssRNA ; dsDNA)", "RNA": "CUUGUUGUAUAUGUCCUUUUAUAGGUAUUAAACAACUGAGAAUGGUGCGUCCUAGG", "DNA 1": "TGAGAATGGTGCGTCCTAGG", "DNA 2": "CCTAGGACGCACCATTCTCA"}},
  "key": {"[1]": {"molecular_target": "T1, variant nuclease 7 substitutions D590G/E154G/E736G (P14R, D32R, I61R, E311R, D590G, E154G, E736G)", "T1 chain": "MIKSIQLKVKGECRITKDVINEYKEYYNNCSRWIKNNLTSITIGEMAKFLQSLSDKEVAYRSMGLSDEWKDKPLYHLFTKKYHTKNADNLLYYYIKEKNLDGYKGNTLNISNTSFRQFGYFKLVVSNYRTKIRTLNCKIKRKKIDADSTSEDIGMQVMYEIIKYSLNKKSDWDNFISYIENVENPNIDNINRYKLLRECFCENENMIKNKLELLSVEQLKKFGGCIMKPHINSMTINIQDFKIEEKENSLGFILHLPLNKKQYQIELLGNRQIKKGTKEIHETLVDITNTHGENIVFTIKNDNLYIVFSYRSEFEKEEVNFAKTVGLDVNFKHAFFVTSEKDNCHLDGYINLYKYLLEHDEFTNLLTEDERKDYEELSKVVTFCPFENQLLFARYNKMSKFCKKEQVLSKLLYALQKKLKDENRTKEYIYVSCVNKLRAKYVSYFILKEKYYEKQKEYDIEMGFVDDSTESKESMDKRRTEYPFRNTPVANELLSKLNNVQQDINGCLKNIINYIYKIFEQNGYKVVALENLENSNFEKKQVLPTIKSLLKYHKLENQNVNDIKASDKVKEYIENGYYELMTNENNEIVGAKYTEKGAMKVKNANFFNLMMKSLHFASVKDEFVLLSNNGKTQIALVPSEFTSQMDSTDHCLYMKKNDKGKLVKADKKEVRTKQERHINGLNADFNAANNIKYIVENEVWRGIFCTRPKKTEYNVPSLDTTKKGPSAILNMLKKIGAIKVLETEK", "assay": "cell_activity; PAM 5'-TTTG-3'", "details": "tags: pcDNA3.1 expression", "in_short": "(§1)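 HEK293T cells were lipofected with nuclease plasmid (pcDNA3.1 backbone) plus RNA guide plasmid, with guide omitted in negative controls. After ~72 h cells were lysed in QuickExtract and % indels were derived from NGS reads, averaged over two bioreplicates and two technical replicates.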"}, "[2]": {"molecular_target": "T2, variant nuclease T338G combination (P14R, D32R, I61R, E311R, T338G)", "T2 chain": "T1 chain with G154E, T338G, G590D, G736E", "assay": "cell_activity; PAM 5'-TTTG-3'", "details": "tags: pcDNA3.1 expression", "in_short": "as §1"}},
  "note": "Where a chain is given by its changes, count along the chain named.",
  "data": [
    {"binder": "B1", "values": [
      {"measurement": "indel activity", "setting": "[1]", "result": "5.91 fold of WT"},
      {"measurement": "indel activity", "setting": "[2]", "result": "5.93 fold of WT"}
    ]}
  ]
}
